Measured values reported in the RNAGym collection of RNA variant scans (doi:10.1093/molbev/msab373).

B1: Azoarcus group I ribozyme (parent)
chain: GUGCCUUGCGCCGGGAAACCACGCAAGGGAUGGUGUCAAAUUCGGCGAAACCUAAGCGCCCGCCCGGGCGUAUGGCAACGCCGAGCCAAGCUUCGGCGCCUGCGCCGAUGAAGGUGUAGAGACUAGACGGCACCCACCUAAGGCAAACGCUAUGGUGAAGGCAUAGUCCAGGGAGUGGCGAAAGUCACACAAACCGG

Variants of: B1
Assay: reverse-splicing fitness (ratio to wild type); higher = more active; in vitro selection; Mg2+ level not given
Outline: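 An in vitro group I ribozyme library with randomized positions was T7-transcribed and gel-purified. In triplicate, 10 pmol RNA in EPPS pH 7.5 was reacted with 50 pmoles of a 30-nt RNA substrate for 1 h at 37 °C across several added MgCl2 levels (1–48 mM), then stopped with EDTA. Products were reverse transcribed from a substrate-complementary primer, PCR-amplified and sequenced (HiSeq 4000). Fitness is a variant's read proportion after selection over that before, normalised to wild type.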

Variant	reverse-splicing fitness
C82A A120G A145G C150A C169U	0.00961
C82A A120G A145G C150A C169G	0.0104
C82A A120G A145G C150A C169A	0.0112
C82A A120C C150U C169A	0.0105
C82A A120C C150U C169G	0.00925
C82A A120C C150U C169U	0.0173
C82A A120C C169G U176C	0.0259
C82A A120C C169G U176A	0.0193
C82A A120C C169G U176G	0.00508
C82A A120G A145C C150U C169A	0.00915
C82A A120G A145C C150U C169U	0.00958
C82A A120G A145C C150U C169G	0.00984
C82A A120G A145G C169A	0.0151
C82A A120G A145G C169G	0.0223
C82A A120G A145G C169U	0.0148
C82A A120G A145C C169A U176A	0.00955
C82A A120G A145C C169A U176C	0.00741
C82A A120G A145C C169A U176G	0.00327
C82A A120G A145G C150A U176A	0.0108
C82A A120G A145G C150A U176C	0.0213
C82A A120G A145G C150A U176G	0.00779
C82A A120G A145C C150G C169U U176A	0.0158
C82A A120G A145C C150G C169U U176C	0.0123
C82A A120G A145C C150G C169U U176G	0.00438

Variant	reverse-splicing fitness
C82A A120C C150U	0.0789
C82A A120C C169G	0.00961
C82A A120C C169U	0.0186
C82A A120C C169A	0.0104
C82A A120C C169A U176C	0.0229
C82A A120C C169A U176G	0.00458
C82A A120C C169A U176A	0.0198
C82A A120G A145C C150G C169G U176A	0.00918
C82A A120G A145C C150G C169G U176C	0.00676
C82A A120G A145C C150G C169G U176G	0.00341
C82A A120G A145G C150G C169U U176A	0.0129
C82A A120G A145G C150G C169U U176C	0.0123
C82A A120G A145G C150G C169U U176G	0.00741
C82A A120C U176A	0.04
C82A A120C U176G	0.00961
C82A A120C U176C	0.056
C82A A120G A145C C150U C169G U176C	0.0116
C82A A120G A145C C150U C169G U176A	0.0208
C82A A120G A145C C150U C169G U176G	0.00468
C82A A120C C150U U176C	0.0394
C82A A120C C150U U176A	0.0246
C82A A120C C150U U176G	0.0111
C82A A120G A145C C150A C169U U176G	0.00478
C82A A120G A145C C150A C169U U176A	0.0192

Variant	reverse-splicing fitness
C82A A120G A145C C150A C169U U176C	0.0107
C82A A120G A145G C169U U176A	0.022
C82A A120G A145G C169U U176G	0.0046
C82A A120G A145G C169U U176C	0.0195
C82A A120G A145G C150G C169G U176A	0.0097
C82A A120G A145G C150G C169G U176C	0.0124
C82A A120G A145G C150G C169G U176G	0.00587
C82A A120G A145G C150U C169G	0.0197
C82A A120G A145G C150U C169U	0.016
C82A A120G A145G C150U C169A	0.0179
C82A A120G A145C U176C	0.0111
C82A A120G A145C U176G	0.00396
C82A A120G A145C U176A	0.011
C82A A120G A145C C169U U176G	0.00381
C82A A120G A145C C169U U176C	0.0129
C82A A120G A145C C169U U176A	0.0217
C82A A120G A145G C150U C169G U176G	0.0046
C82A A120G A145G C150U C169G U176C	0.0199
C82A A120G A145G C150U C169G U176A	0.0149
C82A A120G A145G C150G U176C	0.011
C82A A120G A145G C150G U176A	0.00745
C82A A120G A145G C150G U176G	0.00572
C82A A120C C150U C169U U176G	0.00589
C82A A120C C150U C169U U176A	0.0167

Variant	reverse-splicing fitness
C82A A120C C150U C169U U176C	0.0147
C82A A120G	0.0258
C82A A120C C150G C169U U176C	0.0113
C82A A120C C150G C169U U176G	0.00629
C82A A120G A145G C169G U176G	0.00359
C82A A120G A145G C169G U176C	0.032
C82A A120G A145G C169G U176A	0.0223
C82A A120C C150U C169A U176C	0.0165
C82A A120C C150U C169A U176A	0.0201
C82A A120C C150U C169A U176G	0.00673
C82A A120G A145C C150G C169G	0.00899
C82A A120G A145C C150G C169A	0.00915
C82A A120G A145C C150G C169U	0.00806
C82A A120G A145C C150A U176G	0.00435
C82A A120G A145C C150A U176C	0.00806
C82A A120G A145C C150A U176A	0.00995
C82A A120G A145G C150U C169A U176G	0.00535
C82A A120G A145G C150U C169A U176A	0.016
C82A A120G A145G C150U C169A U176C	0.0196
C82A A120G A145C C169G U176G	0.00403
C82A A120G A145C C169G U176C	0.0162
C82A A120G A145C C169G U176A	0.0259
C82A A120G A145G C150U U176A	0.0104
C82A A120G A145G C150U U176C	0.0178

Variant	reverse-splicing fitness
C82A A120G A145G C150U U176G	0.00667
C82A A120G A145C C150A C169G U176G	0.00464
C82A A120G A145C C150A C169G U176C	0.0138
C82A A120G A145C C150A C169G U176A	0.0238
C82A A120C C169U U176C	0.0151
C82A A120C C169U U176A	0.0172
C82A A120C C169U U176G	0.00416
C82A A120G A145C C150G U176A	0.00476
C82A A120G A145C C150G U176G	0.00304
C82A A120G A145C C150G U176C	0.00686
C82A A120G A145C C150U C169U U176A	0.0197
C82A A120G A145C C150U C169U U176G	0.00407
C82A A120G A145C C150U C169U U176C	0.0106
C82A A120G A145G U176A	0.0143
C82A A120G A145G U176G	0.00561
C82A A120G A145G U176C	0.021
C82A A120G A145C C150A C169G	0.00852
C82A A120G A145C C150A C169A	0.00694
C82A A120G A145C C150A C169U	0.00736
C82A A120G A145G C150A C169U U176C	0.0185
C82A A120G A145G C150A C169U U176A	0.0211
C82A A120G A145G C150A C169U U176G	0.00592
C82A A120G A145C C150G C169A U176G	0.00399
C82A A120G A145C C150G C169A U176C	0.00611

Variant	reverse-splicing fitness
C82A A120G A145C C150G C169A U176A	0.00899
C82A A120G A145G C150G C169G	0.00916
C82A A120G A145G C150G C169A	0.01
C82A A120G A145G C150G C169U	0.0106
C82A A120G A145U C150A	0.00826
C82A A120G A145C C150U U176G	0.0042
C82A A120G A145C C150U U176A	0.0106
C82A A120G A145C C150U U176C	0.0102
C82A A120G A145G C150A C169A U176A	0.0183
C82A A120G A145G C150A C169A U176C	0.023
C82A A120G A145G C150A C169A U176G	0.00558
C82A A120G A145C C150A	0.00678
C82A A120G A145C C150G	0.0075
C82A A120G A145C C150U	0.0107
C82A A120G A145C C150A C169A U176C	0.00527
C82A A120G A145C C150A C169A U176G	0.00399
C82A A120G A145C C150A C169A U176A	0.0126
C82A A120G A145G C169A U176G	0.00382
C82A A120G A145G C169A U176A	0.0208
C82A A120G A145G C169A U176C	0.0273
C82A A120G A145G C150A C169G U176A	0.018
C82A A120G A145G C150A C169G U176C	0.0247
C82A A120G A145G C150A C169G U176G	0.00523
C82A A120G A145C C169G	0.0188

Variant	reverse-splicing fitness
C82A A120G A145C C169A	0.0124
C82A A120G A145C C169U	0.0141
C82A A120G A145C C150U C169A U176G	0.00425
C82A A120G A145C C150U C169A U176A	0.0121
C82A A120G A145C C150U C169A U176C	0.00527
C82A A120C C150G U176G	0.00347
C82A A120C C150G U176C	0.0106
C82A A120C C150G U176A	0.00712
C82A A120C C150U C169G U176A	0.0152
C82A A120C C150U C169G U176G	0.00493
C82A A120C C150U C169G U176C	0.0201
C82A A120G A145G C150G C169A U176C	0.0128
C82A A120G A145G C150G C169A U176G	0.00858
C82A A120G A145G C150G C169A U176A	0.0138
C82A A120G A145G C150U C169U U176G	0.00463
C82A A120G A145G C150U C169U U176A	0.0182
C82A A120G A145G C150U C169U U176C	0.0172
C82A A120G A145G C150G	0.00892
C82A A120G A145G C150U	0.0203
C82A A120G A145G C150A	0.0101
C82A A120G A145C	0.0202
C82A A120G A145G	0.0225
C82A A120G A145U	0.0219
